Columns and labels:
C3b [1] = molecular target: T1, C3b (human, UniProt P01024 23-667; P01024 749-1663); experiment: cell-based or functional assay
C3b [2] = molecular target: T1, C3b; experiment: ELISA; solid-phase binding assay: C3b adsorbed on microtiter wells (1 ug per well); 100 nM FH or FHL-1 mixed with rising FHR-4 up to 500 nM, 4 h at room temperature in 20 mM HEPES, 130 mM NaCl, 0.05% Tween-20, pH 7.3; bound FH or FHL-1 detected with the OX23 antibody; settings: both partners purified

T1 sequence (P01024 23-667, chain 1 of 2): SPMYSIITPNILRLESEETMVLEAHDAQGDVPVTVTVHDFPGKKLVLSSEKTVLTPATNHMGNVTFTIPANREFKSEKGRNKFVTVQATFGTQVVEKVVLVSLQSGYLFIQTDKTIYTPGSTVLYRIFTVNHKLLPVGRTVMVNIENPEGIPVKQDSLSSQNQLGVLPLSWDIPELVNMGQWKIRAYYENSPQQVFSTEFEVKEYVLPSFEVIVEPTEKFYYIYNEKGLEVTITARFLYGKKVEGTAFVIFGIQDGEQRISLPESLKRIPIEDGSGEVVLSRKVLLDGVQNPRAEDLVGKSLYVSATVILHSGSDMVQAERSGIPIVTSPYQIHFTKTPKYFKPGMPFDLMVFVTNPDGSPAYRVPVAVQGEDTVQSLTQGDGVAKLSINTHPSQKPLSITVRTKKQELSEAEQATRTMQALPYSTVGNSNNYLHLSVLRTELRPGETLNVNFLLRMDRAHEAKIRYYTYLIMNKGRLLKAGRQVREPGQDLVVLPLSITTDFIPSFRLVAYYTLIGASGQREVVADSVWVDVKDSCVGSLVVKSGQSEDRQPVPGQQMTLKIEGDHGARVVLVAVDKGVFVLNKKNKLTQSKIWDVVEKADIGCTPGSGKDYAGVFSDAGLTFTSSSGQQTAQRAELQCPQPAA
T1 sequence (P01024 749-1663, chain 2 of 2): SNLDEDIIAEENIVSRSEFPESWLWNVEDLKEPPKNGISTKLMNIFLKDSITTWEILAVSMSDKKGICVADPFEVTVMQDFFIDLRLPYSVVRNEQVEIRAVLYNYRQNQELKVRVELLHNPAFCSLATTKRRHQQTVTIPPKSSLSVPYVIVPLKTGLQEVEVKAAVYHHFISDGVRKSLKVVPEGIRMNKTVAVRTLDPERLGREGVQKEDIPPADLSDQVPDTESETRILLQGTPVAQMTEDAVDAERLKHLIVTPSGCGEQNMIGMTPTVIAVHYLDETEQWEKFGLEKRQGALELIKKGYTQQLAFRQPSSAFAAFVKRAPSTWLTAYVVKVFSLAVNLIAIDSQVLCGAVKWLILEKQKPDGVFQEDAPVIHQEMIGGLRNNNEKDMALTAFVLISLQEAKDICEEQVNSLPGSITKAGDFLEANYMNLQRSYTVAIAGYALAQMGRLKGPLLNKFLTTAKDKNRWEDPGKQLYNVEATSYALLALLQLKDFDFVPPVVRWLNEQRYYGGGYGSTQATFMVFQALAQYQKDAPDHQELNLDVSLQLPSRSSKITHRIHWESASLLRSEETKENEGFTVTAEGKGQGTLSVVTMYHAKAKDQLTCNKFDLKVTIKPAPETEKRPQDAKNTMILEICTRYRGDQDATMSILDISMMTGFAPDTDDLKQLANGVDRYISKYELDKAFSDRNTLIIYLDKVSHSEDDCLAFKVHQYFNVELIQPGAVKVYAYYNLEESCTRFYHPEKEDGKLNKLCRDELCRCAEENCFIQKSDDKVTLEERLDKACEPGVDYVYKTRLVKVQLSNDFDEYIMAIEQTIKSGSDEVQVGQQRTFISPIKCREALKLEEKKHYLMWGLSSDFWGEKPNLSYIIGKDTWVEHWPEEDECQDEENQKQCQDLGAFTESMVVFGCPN

inhibition of FHL-1/FI-mediated C3b α-chain cleavage in the fluid phase (blocks FHL-1 with C3b); FHR-4 up to a 5-fold molar excess over FHL-1, dose-dependent (C3b [1])	binding result (C3b [2])	Binder
2.5 fold molar excess of FHR-4 over FHL-1 for 50% reduction	–	Recombinant Factor H-Related Protein 4 (FHR-4), FHR-4B variant (natural protein, human, UniProt Q92496-3 20-331, looked up) EVKPCDFPEIQHGGLYYKSLRRLYFPAAAGQSYSYYCDQNFVTPSGSYWDYIHCTQDGWSPTVPCLRTCSKSDIEIENGFISESSSIYILNKEIQYKCKPGYATADGNSSGSITCLQNGWSAQPICIKFCDMPVFENSRAKSNGMRFKLHDTLDYECYDGYEISYGNTTGSIVCGEDGWSHFPTCYNSSEKCGPPPPISNGDTTSFLLKVYVPQSRVEYQCQSYYELQGSNYVTCSNGEWSEPPRCIHPCIITEENMNKNNIQLKGKSDIKYYAKTGDTIEFMCKLGYNANTSVLSFQAVCREGIVEYPRCE
–	binds	complement factor H (FH) (natural protein, human, UniProt P08603 19-1231, looked up, complement factor H, commercially available purified protein; also called CFH; source: bought: Sigma-Aldrich, catalogue no; C5813 (purified)) EDCNELPPRRNTEILTGSWSDQTYPEGTQAIYKCRPGYRSLGNVIMVCRKGEWVALNPLRKCQKRPCGHPGDTPFGTFTLTGGNVFEYGVKAVYTCNEGYQLLGEINYRECDTDGWTNDIPICEVVKCLPVTAPENGKIVSSAMEPDREYHFGQAVRFVCNSGYKIEGDEEMHCSDDGFWSKEKPKCVEISCKSPDVINGSPISQKIIYKENERFQYKCNMGYEYSERGDAVCTESGWRPLPSCEEKSCDNPYIPNGDYSPLRIKHRTGDEITYQCRNGFYPATRGNTAKCTSTGWIPAPRCTLKPCDYPDIKHGGLYHENMRRPYFPVAVGKYYSYYCDEHFETPSGSYWDHIHCTQDGWSPAVPCLRKCYFPYLENGYNQNYGRKFVQGKSIDVACHPGYALPKAQTTVTCMENGWSPTPRCIRVKTCSKSSIDIENGFISESQYTYALKEKAKYQCKLGYVTADGETSGSITCGKDGWSAQPTCIKSCDIPVFMNARTKNDFTWFKLNDTLDYECHDGYESNTGSTTGSIVCGYNGWSDLPICYERECELPKIDVHLVPDRKKDQYKVGEVLKFSCKPGFTIVGPNSVQCYHFGLSPDLPICKEQVQSCGPPPELLNGNVKEKTKEEYGHSEVVEYYCNPRFLMKGPNKIQCVDGEWTTLPVCIVEESTCGDIPELEHGWAQLSSPPYYYGDSVEFNCSESFTMIGHRSITCIHGVWTQLPQCVAIDKLKKCKSSNLIILEEHLKNKKEFDHNSNIRYRCRGKEGWIHTVCINGRWDPEVNCSMAQIQLCPPPPQIPNSHNMTTTLNYRDGEKVSVLCQENYLIQEGEEITCKDGRWQSIPLCVEKIPCSQPPQIEHGTINSSRSSQESYAHGTKLSYTCEGGFRISEENETTCYMGKWSSPPQCEGLPCKSPPEISHGVVAHMSDSYQYGEEVTYKCFEGFGIDGPAIAKCLGEKWSHPPSCIKTDCLSLPSFENAIPMGEKKDVYKAGEQVTYTCATYYKMDGASNVTCINSRWTGRPTCRDTSCVNPPTVQNAYIVSRQMSKYPSGERVRYQCRSPYEMFGDEEVMCLNGNWTEPPQCKDSTGKCGPPPPIDNGDITSFPLSVYAPASSVEYQCQNLYQLEGNKRITCRNGQWSEPPKCLHPCVISREIMENYNIALRWTAKQKLYSRTGESVEFVCKRGYRLSSRSHTLRTTCWDGKLEYPTCAKR

Reference: article PMC7005798, “Increased circulating levels of Factor H-Related Protein 4 are strongly associated with age-related macular degeneration” (Nature Communications, 2020)
